Consider one substance from article PMC5913134, “The IL-33-PIN1-IRAK-M axis is critical for type 2 immunity in IL-33-induced allergic airway inflammation” (Nature Communications, 2018).

The target of this assay is PIN1 (GST-PIN1, GFP-PIN1, 15N-PIN1-WW) (UniProt Q13526). Briefly: co-IP with anti-GFP, blot. The conditions noted are these: reference: wild type; sites S110.

Consider “IRAK-M (transfected constructs and synthetic peptides) (from UniProt Q9Y616) S110A”, for which the “binding against the reference” value is reported as “lost”.
